{"source": "patent US20030147883A1", "key": {"[1]": {"molecular_target": "Epitope tagged high affinity fMLP receptor FPR (on ETFR cells) (UniProt P21462)", "sequence (P21462 whole entry)": "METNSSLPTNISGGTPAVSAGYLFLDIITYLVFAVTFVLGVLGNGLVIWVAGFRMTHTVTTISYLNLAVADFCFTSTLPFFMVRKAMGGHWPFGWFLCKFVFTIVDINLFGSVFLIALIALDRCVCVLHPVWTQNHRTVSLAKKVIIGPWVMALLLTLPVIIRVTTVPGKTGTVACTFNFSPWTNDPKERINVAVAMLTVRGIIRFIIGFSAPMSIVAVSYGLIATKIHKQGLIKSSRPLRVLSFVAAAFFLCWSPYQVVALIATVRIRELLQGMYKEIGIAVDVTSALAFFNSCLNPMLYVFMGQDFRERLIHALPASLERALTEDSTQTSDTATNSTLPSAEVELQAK", "assay": "cell-based or functional assay"}, "[2]": {"molecular_target": "FPR-like receptor 1 (FPRL1) (UniProt P25090)", "sequence (P25090 whole entry)": "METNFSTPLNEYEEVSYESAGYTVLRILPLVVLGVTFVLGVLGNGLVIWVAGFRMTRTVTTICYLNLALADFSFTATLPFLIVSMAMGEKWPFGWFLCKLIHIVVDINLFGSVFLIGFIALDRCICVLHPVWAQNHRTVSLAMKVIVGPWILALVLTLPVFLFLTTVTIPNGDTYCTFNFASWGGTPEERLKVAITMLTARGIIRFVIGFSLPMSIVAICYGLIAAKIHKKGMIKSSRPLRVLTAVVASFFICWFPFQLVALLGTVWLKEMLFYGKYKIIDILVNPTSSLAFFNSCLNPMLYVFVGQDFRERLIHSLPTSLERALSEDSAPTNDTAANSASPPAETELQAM", "assay": "cell-based or functional assay"}}, "data": [{"substance": "N-formyl-methionyl-leucyl-phenylalanine (fMLP) (peptide)", "values": [{"measurement": "Ca^2+ mobilization in ETFR cells, minimal effective dose", "setting": "[1]", "value": 100, "unit": "pM"}, {"measurement": "cross-desensitization of Ca^2+ flux in FPRL1/293 cells", "setting": "[2]", "value": 100000, "unit": "fold excess"}]}]}
